Data on eight molecules can be found in article PMC10770331, “The virulence regulator VirB from Shigella flexneri uses a CTP-dependent switch mechanism to activate gene expression” (Nature Communications, 2024).

Substitutions are numbered along the chain they refer to. Numbers in names are those of the source.

For data set [1], the target named is T1, VirB (Shigella flexneri) (UniProt P0A247).
T1 sequence: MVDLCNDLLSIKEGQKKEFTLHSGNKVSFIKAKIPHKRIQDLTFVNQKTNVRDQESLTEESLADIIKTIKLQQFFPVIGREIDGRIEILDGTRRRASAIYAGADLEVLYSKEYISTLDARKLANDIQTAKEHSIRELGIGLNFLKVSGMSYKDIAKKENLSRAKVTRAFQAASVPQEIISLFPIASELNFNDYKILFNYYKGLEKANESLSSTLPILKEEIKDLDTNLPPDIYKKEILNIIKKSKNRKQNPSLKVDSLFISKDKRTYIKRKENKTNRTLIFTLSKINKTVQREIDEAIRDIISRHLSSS
In words: BLI. Conditions: BLI: 25 mM HEPES/NaOH pH 7.5, 150 mM (low stringency) or 500 mM (high stringency) NaCl, 5 mM MgCl2, 1 mM DTT, 10 uM BSA, 0.01% Tween 20, +/-1 mM nucleotide ….

For data set [2], the target named is T2, VirB (Shigella flexneri, UniProt P0A247).
T2 construct: purified recombinant wild-type VirB, His6-SUMO tag removed; encoded on virulence plasmid pINV
In words: isothermal titration calorimetry (MST KD […]). The data set is classed as binding.

The target of data set [3] is T2, VirB. In words: microscale thermophoresis; supported by HDX-MS, crosslinking and weak CTPase activity. It is filed as binding. For orientation: MST reads how a fluorescent partner responds to local heating, with and without ligand.
Data set [4] deals with T2, VirB. In words: isothermal titration calorimetry. It is filed as binding. Background: ITC needs no label: the signal is the heat of the interaction.
The target of data set [5] is T3, VirB (Shigella flexneri, UniProt P0A247 1-309).
T3 sequence: T1 sequence
In words: BLI; 150 mM NaCl, without and with CTP; BLI: 25 mM HEPES/NaOH pH 7.5, 150 mM (low stringency) or 500 mM (high stringency) NaCl, 5 mM MgCl2, 1 mM DTT, 10 uM BSA, 0.01% Tween 20, +/-1 mM nucleotide; temperature not stated. Conditions: protein: recombinant; tags: none (His6-SUMO removed by Ulp1); chain copies: 2; label: 5' biotin-TEG on strand 1; blunt; one end open. A general note: Biolayer interferometry detects binding as a change in optical thickness at a sensor tip.

Data set [6] deals with the molecule itself. In words: mass photometry; ~100 nM protein in high-stringency buffer (25 mM HEPES/NaOH pH 7.5, 5 mM MgCl2, 500 mM NaCl, 1 mM DTT), without or with 1 mM CTP; oligomeric state in solution.
Data set [7] concerns the molecule itself. In words: cross-linking; 10 µM protein, room temperature, 25 mM HEPES/NaOH pH 7.5, 500 mM NaCl, 5 mM MgCl2, 0.1 mM EDTA; alone, with 1 mM CTP and/or 1 µM virS DNA oligonucleotide; 1 mM BMOE for 1 min, SDS-PAGE; homodimerization of the two N-terminal NBDs within the VirB dimer (clamp closure).

The Kd is a measure of binding affinity in units of concentration. The low end stands for tighter binding, the high end for weaker binding. As to “AATATATTCAATTAATAAATTTAGAAACTTGAGCCTGTTAACATAATCAAATTTTCTTTTGCTGTACATAATATGTACCTCGTGAGCATATGTAGTGCTCGTTTCATCATGAAATCCCACAAGATAAAGTGCCTGATGTATCAGGCTCGGAGTGTTATAGAAAAAGAGAGAACCCTGTTGAATAAGTATCTTTTTTGTTGTAAAACGAGGTACAA (double strand) [closed virS DNA (215 bp)]”, the Kd in data set [1] was 2.3 µM.

For `Nc1ccn([C@@H]2O[C@H](COP(=O)(O)OP(=O)(O)O)[C@@H](O)[C@H]2O)c(=O)n1` [CDP], in data set [2], the Kd was around 91 µM.

In turn, NdeI-opened virS DNA (from 215 bp) showed a binding signal (fraction of maximum signal on closed DNA) in data set [1] of 0.25. `Nc1ccn([C@@H]2O[C@H](COP(=O)(O)OP(=O)(O)OP(=O)(O)O)[C@@H](O)[C@H]2O)c(=O)n1` [CTP] showed a Kd in data set [3] of 11 µM. The molecule `Nc1ccn([C@@H]2O[C@H](COP(=O)(O)OP(=O)(O)OP(O)(O)=S)[C@@H](O)[C@H]2O)c(=O)n1` [CTPγS] came in with a Kd in data set [4] of around 12 µM.

B1: open virS oligonucleotide (23 bp) (dsDNA)
DNA 1: GCTCGTTTCATCATGAAATCCCA
DNA 2: TGGGATTTCATGATGAAACGAGC
In the case of B1, the binding result in data set [5] was “binds”.

B2: VirB from Shigella flexneri (wild type) (natural protein)
chain: T1 sequence
notes: VirB of S. flexneri, UniProt P0A247; Native C5 was used for BMOE cross-linking; also called WT; wild-type VirB; source: E. coli Rosetta(DE3)pLysS, purified (IMAC, Ulp1 cleavage of the His6-SUMO tag, second IMAC, SEC); not shown: His6, N-terminal, cleaved; SUMO, N-terminal, cleaved
Usually stoichiometry N stands for a count of units in the complex or per binding partner. As to B2, the “stoichiometry N” value in data set [6] was 2.

B3: VirB-C5S/Q15C (natural protein)
chain: T1 sequence with C5S, Q15C
notes: VirB of S. flexneri, UniProt P0A247, lacking the native cysteine at position 5 and carrying an engineered cysteine at position 15; source: E. coli Rosetta(DE3)pLysS, purified (IMAC, Ulp1 cleavage of the His6-SUMO tag, second IMAC, SEC); not shown: His6, N-terminal, cleaved; SUMO, N-terminal, cleaved
Take B3: the binding result in data set [7] is reported as “binds”.
